# Assay results published in paper PMC4821647.
# T1: Arid5a (Mus musculus, UniProt Q3U108 1-590)
# T1 sequence: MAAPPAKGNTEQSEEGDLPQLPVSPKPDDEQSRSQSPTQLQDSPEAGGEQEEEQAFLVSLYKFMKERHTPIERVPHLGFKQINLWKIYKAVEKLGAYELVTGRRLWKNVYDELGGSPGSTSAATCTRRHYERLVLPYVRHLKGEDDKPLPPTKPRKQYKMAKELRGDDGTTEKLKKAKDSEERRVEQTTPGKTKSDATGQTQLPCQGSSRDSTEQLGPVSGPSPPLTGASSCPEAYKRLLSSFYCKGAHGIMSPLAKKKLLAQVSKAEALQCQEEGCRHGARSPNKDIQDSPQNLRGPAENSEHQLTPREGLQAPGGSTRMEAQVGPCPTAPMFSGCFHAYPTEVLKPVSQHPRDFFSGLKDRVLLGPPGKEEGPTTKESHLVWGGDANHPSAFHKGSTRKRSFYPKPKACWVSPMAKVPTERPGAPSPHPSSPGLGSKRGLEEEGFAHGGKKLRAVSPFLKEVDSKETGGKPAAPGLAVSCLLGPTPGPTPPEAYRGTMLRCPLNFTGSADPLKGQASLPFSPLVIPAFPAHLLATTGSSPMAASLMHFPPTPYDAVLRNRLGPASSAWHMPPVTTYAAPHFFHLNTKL
# T2: Arid5a R128A (Mus musculus, UniProt Q3U108 1-590, R128A)
# T2 sequence: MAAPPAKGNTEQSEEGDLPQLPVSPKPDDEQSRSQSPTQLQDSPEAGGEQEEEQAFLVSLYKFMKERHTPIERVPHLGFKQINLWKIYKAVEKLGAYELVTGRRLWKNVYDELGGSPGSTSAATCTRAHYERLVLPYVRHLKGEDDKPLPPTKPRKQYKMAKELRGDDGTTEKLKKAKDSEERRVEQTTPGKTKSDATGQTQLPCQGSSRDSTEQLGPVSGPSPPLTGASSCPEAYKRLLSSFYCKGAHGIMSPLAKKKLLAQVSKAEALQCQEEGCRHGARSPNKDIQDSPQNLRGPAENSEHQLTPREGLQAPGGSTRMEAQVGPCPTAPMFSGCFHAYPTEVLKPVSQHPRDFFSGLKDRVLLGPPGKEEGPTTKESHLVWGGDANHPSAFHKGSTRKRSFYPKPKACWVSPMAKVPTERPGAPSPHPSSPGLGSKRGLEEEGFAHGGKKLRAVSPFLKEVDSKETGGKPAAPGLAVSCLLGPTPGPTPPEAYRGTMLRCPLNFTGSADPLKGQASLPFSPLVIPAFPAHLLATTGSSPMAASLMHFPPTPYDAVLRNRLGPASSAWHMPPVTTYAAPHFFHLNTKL
# Tests used:
# Arid5a = target: T1, Arid5a; experiment: EMSA
# Arid5a R128A = target: T2, Arid5a R128A; experiment: EMSA
Binder,binding result (Arid5a),binding result (Arid5a R128A)
UGCACACCCUUGUGUUCUGGCCACUGCA (structured_RNA) [mutant stem-loop STAT3 3'UTR (1738-1765)],no binding,
UGCAGUGGCUUGUGUUCUGGCCACUGCA (structured_RNA) [STAT3 3'UTR (1738-1765) stem-loop],binds,no binding
